Measured values: the DeepSol protein solubility set

Experiment: soluble on expression in E. coli; label from the status in PepcDB or PDB records

Sequence	soluble on expression in E. coli
MSVMTLKKQTYRVIAVINQGQELLVRAHEPETADIEIIPVTTVVQVTEQNSTGDAAVALDTVTVVGERYVDDIVATLTTLRVGMAVLLQRESGNQYDDNAISVWTLQHAKLGYIARYQNQPYATLMDQGQRLYGIVTVLDQQKQHLELMLWRTTAVPSPIEALQIRQRLAKPRTNLGAVPTHSLQTPLGTIVMMCNGHPIKYQQVPLSPWLTPADELHVTKRYLLTPDWSQVPPDSLITCQVTAKADVVQRWQNEHISAAVLTNASSFYVVGISAQTKTGLNDNLVDDAAQPAVIYRVGQVSAHMQAGFMVSWAPFGDPRVQPALKLALHFSSQPLVPYHPVTPSRTNATFTQQELAALLVSALPNYQGGQRLEPSVTTITVEKLRQTLGDQTYHALANYQRHVQLVAGSTEGVNETLLQALIHAVTYHELTTMHYYQPTVGMVDQVIYPIQLFSTTTKDEDDAQLVGCLALYNYETFEIQQVPLTAIARIAIIADPEHPQTTPETESPDWLRIFLHGWNDDFLEHHHHHH	soluble
GSKATDSVLQGSEGNKVKRTSCMYGANCYRKNPVHFQHFSHPGDSDYGGVQIVGQDETDDRPECPYGPSCYRKNPQHKIEYRHNTLPVRNV	soluble
MSLESVQNYEAKSAHAHQAFFLKFEELKEVSKEQPRLEAEYPANTTKNYDHSRVRLTQLEGEPHSDYINANLVPGYTRPQEFIASQGPLKKTLENFWRLVREQQVRIIIMPTISMENGRVLCEHYWLTDSTPDTHGHITIHLLAEEPEDEWTKREFQLQHLLRGCPCGVGMGRTGTFVALSRLLQQLEEEQMVDVFHAVYALRMHQPLMIQTLSQYVFLHSCLLNKILEGPFNISESWPISVTDLPQACAKRAASANAGFLKEYEAIKDEAGFSAPPPGYEQDSPVSYDRSQGQFSPVEESPPDDMPEAWLFPGGPSGRDHTVLTGPAGPKELWELVWQHRAHVLVSLCPPNVMEKGESRKEREVQRLQFPYLEPGHELPATTLLPFLAAVGQCCSRGNNKKPGTLLSHSKCCWTMVSCSKGATQLGTFLAMEQLLQQAGSECTVDIFNVALQQSQACGLMTPTLITQQCLLLSDCTAPPPTEGHHHHHH	not soluble
MGSDKIHHHHHHMKAPEGIACGKRQLVVSDTGGGRLLSYSIENGSVRGGTEIKAEQVPYPTKVQLTSKGEILVIDGKLRRIAHFSPEGSFAGYLDLKGVPAPATIAPRGIRVDDKDNIHILDIFGARVIVTDAAGTFQSQMPFPEGYRFISDLAVSASGTTLLLDSVASRVYAAARGETAFKPLTDGMKEYLQFPTSIATDKQGKIFILDQTGNAVVTLGQDGSFQGRQLNIGWKNSFLHYPSQLCISEENDIDVVIADRNNNRIQVFRVVR	not soluble
MSDNDDDFMCDDDEDYGLEYSEDSNSEPDVDLENQYYNSKALKEEEPKAALASFQKVLDLENGEKGEWGFKALKQMIKINFRLCNYDEMMVRYKQLLTYIKSAVTRNHSEKSINSILDYISTSKNMALLQNFYETTLDALRDAKNDRLWFKTNTKLGKLYFDRSDFTKLQKILKQLHQSCQTDDGEDDLKKGTQLLEIYALEIQMYTVQKNNKKLKALYEQSLHIKSAIPHPLIMGVIRECGGKMHLREGEFEKAHTDFFEAFKNYDESGSPRRTTCLKYLVLANMLMKSGINPFDSQEAKPYKNDPEILAMTNLVNSYQNNDINEFETILRQHRSNIMADQFIREHIEDLLRNIRTQVLIKLIRPYKNIAIPFIANALNIEPAEVESLLVSCILDDTIKGRIDQVNQVLQLDKINSSASRYNALEKWSNQIQSLQFAVVQKMA	soluble
GMDEKPAITKIISGGQTGADRAALDFAIKHHIPYGGWVPKGRLAEGGRVPETYQLQEMPTSDYSKRTEKNVLDSDGTLIISHGILKGGSALTEFFAEQYKKPCLHIDLDRISIEDAATLINSWTVSHHIQVLNIAGPRAGKDPEIYQATMDLLEVFLA	soluble
MPRKRSVALAAWGEEGLLLVLRPQDDPEFPGAWGLPAVSLQGEETLEEAALRVAREKLGAEVAEAGPIAFGVEERPGYTLELWVYEGRLLGRPRLPEPKPGKTYYAAFRFGRPEELKAAARQGSLCSRLFLAVKGLCP	soluble
MADPNESGLSKSVEIGGISDKLDSMKLSKSKLTFTDLPMDALYECFKQLDYLERMPLRKVCRKFKNAVDGMDPGFKKIRICIYEPEAFDVEFDSNLFYFVKESGNATHYSKFNPRKMLKWKFGNGEDSLEVVMKFVTKMMNFSKYCCKLIERILKQSAYPNLKKIHLFGLNSRQTPSILRHFKPGKLEFLWSDSFNAETMKEMYKLDQWKMAKSQFENIKIRDQCAPGIPSTFGYLWNYHRYAKLVTVGKAVEIKNCLMKSTNFKKWEFCMGMSLDAARVFDPNASGFEISRDGGVKGTIRCLFKGHSVKIDFSPWKFEITKE	not soluble
MSLDIFIMDPNEKLTSERLKDFLDRHAARLSRYERLMNMYMGKHPILYEKEKELGKPNNRLVVNFAKYIVDMLNGYFIGIPVKTIHENKEVAAKMKEIAKRNSQNDNNAELSKMCSIYGHAYEFLYQDENAHTRVTYVDPREAFVIYDNTVAQEPLYGVRVLKDDKERPYGTIYSRYDERDFFTSDDGELVIEEKGQEHFFGDVPLIEYVENNERQSAFESVETLINAYNKAISEKANDVDYFADAYLVILGAELDEETIKQIRDNRVINLKSGDGQKIVLEFLDKPNADTTQENLIERLERLIFQISMVANISDEKFGTSSGIALKYKLQPMENIALMKERKFNNGMIRRFKMMFNIPTNFGVDPDEYLNIEYVFTRNIPNNILEEAETAEKLAGITSRQTQLSVLSVVDNVQNELDRIQKEKEGEEINSFNRDMNSPFFGSGELDDGQEEEGHHHHHH	not soluble
MLSTIRYYYEHSLIEEKTKHQELSWQTPISRSLVTHDPSTGGIQLSKKNAMLNDAVTTTTTVEVFRAPTNTDMISLTPASNGGPPLLVRTNGPQYEQWNDRRVQTMMVDDDRRDLAKGVQWKERLIEESDRRYRDNGSDFYDEITEPTQFIHHDYRPKPLGFQTITHPIIMTGSRDDLRSQPPQYPAPLSPLYIVPDRHRNIANSVSPGQYSRRSNGYEDRRKDTEELRDERKRENEQNQNRERYHHRRSKSSNRDDASVSHRSLRHRSMSPASRRSFGTSLGGSQEFVIPAHSPIGSTLMLASPDPNELPGRPASAKSQEIFALYQTRDAYNRIVDQL	not soluble
MNSEHPMTDRVVYRSLMADNLRWDALQLRDGDIIISAPSKSGLTWTQRLVSLLVFDGPDLPGPLSTVSPWLDQTIRPIEEVVATLDAQQHRRFIKTHTPLDGLVLDDRVSYICVGRDPRDAAVSMLYQSANMNEDRMRILHEAVVPFHERIAPPFAELGHARSPTEEFRDWMEGPNQPPPGIGFTHLKGIGTLANILHQLGTVWVRRHLPNVALFHYADYQADLAGELLRPARVLGIAATRDRARDLAQYATLDAMRSRASEIAPNTTDGIWHSDERFFRRGGSGDWQQFFTEAEHLRYYHRINQLAPPDLLAWAHEGRRGYDPAN	soluble
MARTREFDTEAAVSRAMELFWTRGYEATSVRDLTGHLGIGQGSLYAAFGDKDGLYRAALEHYRTTLAAAALRSLEEGTDARSAIRTMLVERIRIAVDDNGRGCLAVNAACERLPEDAATRRTVRDMQDAGRDALTEVLRVAAERGEIAKRHDPHTLAAFLVTFLNGLLVSSKITPDVRALEPLVEVALAALD	not soluble
MLREKAMRSWKPIALGVTLALSSQFSWAAVIETTRLVGFGEAKYPENFTHFDYVNPQAPKYGKVTFGELGTYDNFNRFASRGVAAANTAELYDPLMFSPADEIDSYYPLIASKIRYSDDFTWLEIDLNPNARFHDGKPITAQDVEFSFEKFMAEGVPQYRVYYQDVKSVKAIAERTVRIEMKQPNREQLFSLAQSTRVLPKHYWQYKNLAEPLNEPPVGSGAYQIVDFKPGQSVTYKLNPDYWAKDLPVNVGRNNFAQIQYDYYRDDTVMLEAFKAGEFDLREENQAKFWATSYTGRNFDQGLIKKEEIAHQAPASTQGFIFNTQRPVFQDVRVREALNYALDFEWMNKNLFYDQYQRTRSYFQNTEYEAQGLPNAAELAVLTPYKEQLPARVFTETYQPSVTDGSGRIRTQMREAFALLKEAGWELKNKVMTNVKTGEPLSFELLIYSPTTERIAIPLQKNLQLMGIEMKIRTVDTTQYTKRLRDRDFDMISHGFSANPYPSPNLLIVWNSNYMDSSYNSAGANHPVIDALTEQIAKSQQDTEKLRALGSALDRVLQWNFYIIPQWHLSMYRVAMWDKFSRPSVLPKYSLGLDTWWIDQEKAARLPEKRR	not soluble
SMSAGPWKMVVWDEDGFQGRRHEFTAECPSVLELGFETVRSLKVLSGAWVGFEHAGFQGQQYILERGEYPSWDAWGGNTAYPAERLTSFRPAACANHRDSRLTIFEQENFLGKKGELSDDYPSLQAMGWEGNEVGSFHVHSGAWVCSQFPGYRGFQYVLECDHHSGDYKHFREWGSHAPTFQVQSIRRIQQ	soluble
MSDRKAVIKNADMSEDMQQDAVDCATQAMEKYNIEKDIAAYIKKEFDKKYNPTWHCIVGRSGNFGSYVTHETKHFIYFYLGQVAILLFKSG	soluble
MSFTTKVKEELIHLSTGDNNELAAIIKLSGSLGLAHQSLHLSITTENAKIARYIYSLIEDAYVIVPEIRYHQKTNLRKNRVYTVYVEQGVETILADLKLADSFFGLETGIEPQVLSDDNAGRSYLKGAFLAAGSIRDPESGKYQLEIYSVYLDHAQDLAQLMQKFMLDAKTIEHKSGAVTYLQKAEDIMDFLIIIGAMSCKEDFEAIKLLREARNDINRANNAETANIAKTISASMKTINNIIKIMDTIGLESLPIELQQVAQLRVKHPDYSIQQVADALEFPITKSGVNHRLRKINKIADDL	not soluble
MRMILMFDMPTETAEERKAYRKFRKFLLSEGFIMHQFSVYSKLLLNNTANNAMIGRLKVNNPKKGNITLLTVTEKQFARMVYLHGERNTSVANSDSRLVFLGDSYDQDLEHHHHHH	not soluble
MSVTVKRIIDNTVIVPKLPANEDPVEYPADYFRKSKEIPLYINTTKSLSDLRGYVYQGLKSGNVSIIHVNSYLYGALKDIRGKLDKDWSSFGINIGKAGDTIGIFDLVSLKALDGVLPDGVSDASRTSADDKWLPLYLLGLYRVGRTQMPEYRKKLMDGLTNQCKMINEQFEPLVPEGRDIFDVWGNDSNYTKIVAAVDMFFHMFKKHECASFRYGTIVSRFKDCAALATFGHLCKITGMSTEDVTTWILNREVADEMVQMMLPGQEIDKADSYMPYLIDFGLSSKSPYSSVKNPAFHFWGQLTALLLRSTRARNARQPDDIEYTSLTTAGLLYAYAVGSSADLAQQFCVGDNKYTPDDSTGGLTTNAPPQGRDVVEWLGWFEDQNRKPTPDMMQYAKRAVMSLQGLREKTIGKYAKSEFDK	soluble
MIKFSIRGENIEVTEAIRDYVESKLTKIEKYFAKDQEIDARVNLKVYRERSSKVEVTIPLDSVTLRAEDVSQDMYGSIDLVVDKIERQIRKNKTKIAKKHREKVPTGQVFTTEFEAEEVDEIPEVQVVRTKNVTLKPMDVEEARLQMELLGHDFFIYTDSEDGATNILYRREDGNLGLIEAKLEHHHHHH	soluble
MLVLRLFNTQKARLSQLPKASNEIVKDFISKLANAAGSRDKLSDCFTHDFQFFGCGYTVNKAPFVEKHLATPNPEPLIPKCSSFNGNDSKISFTASHQDGPRENIVDLVISREEKDSPWRLQSGKITNCP	not soluble
